The values below are quoted from earlier work in article PMC3138520.

The target in the data set is NRG-1β (Homo sapiens) (UniProt Q02297).
Sequence of UniProt Q02297 (Q02297 20-241): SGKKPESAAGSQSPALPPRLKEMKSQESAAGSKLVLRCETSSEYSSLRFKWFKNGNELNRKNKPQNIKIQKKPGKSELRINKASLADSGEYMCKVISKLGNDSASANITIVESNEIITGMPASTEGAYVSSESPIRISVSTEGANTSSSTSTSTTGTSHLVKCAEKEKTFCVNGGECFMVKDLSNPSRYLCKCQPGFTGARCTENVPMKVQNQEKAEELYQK

Regarding HER3 (from UniProt P21860), the Kd was 10 nM.
